Source: US20230065493A1

The substances below were run against CPTL derived from para rubber tree (Hevea brasiliensis) (Hevea brasiliensis).
Work on “cis-prenyltransferase (CPT) 6 derived from para rubber tree (Hevea brasiliensis) (enzyme)” yielded a Radioactivity (isoprene polymerization activity, 14C-IPP incorporation, proteoliposome) of 7660 dpm. “cis-prenyltransferase (CPT) 7 derived from para rubber tree (Hevea brasiliensis) (enzyme)” showed a Radioactivity (isoprene polymerization activity, 14C-IPP incorporation, proteoliposome) of 5040 dpm. With “CPT1 derived from para rubber tree (Hevea brasiliensis) (enzyme)” the Radioactivity (isoprene polymerization activity, 14C-IPP incorporation, proteoliposome) was 290 dpm.
